# From patent US20260242735A1 (UNIVERSIT T BASEL, published 2026)
# B1: Refmab #5 (antibody, V domains shown)
# VH: QVQLVQSGAEVKKPGASVKVSCKASGYTFTNYDINWVRQAPGQGLEWIGWIYPGDGSTKYNEKFKAKATLTADTSTSTAYMELRSLRSDDTAVYYCASGYEDAMDYWGQGTTVTVSS
# VL: DIQMTQSPSSLSASVGDRVTINCKASQDINSYLSWFQQKPGKAPKTLIYRANRLVDGVPSRFSGSGSGQDYTLTISSLQPEDFATYYCLQYDEFPLTFGGGTKVEIK
# notes: The alanine scan used IgG or Fab
# B2: Refmab #5 (antibody, V domains shown)
# VH: B1 VH
# VL: B1 VL
# notes: as for B1
# B3: Refmab #5 (antibody, human IgG1, V domains shown)
# VH: B1 VH
# VL: B1 VL
# B4: Refmab #3 (antibody, human IgG1, V domains shown)
# VH: QVQLVQSGAEVKKPGSSVKVSCKASGYTFTDYNMHWVRQAPGQGLEWIGYIYPYNGGTGYNQKFKSKATITADESTNTAYMELSSLRSEDTAVYYCARGRPAMDYWGQGTLVTVSS
# VL: DIQMTQSPSSLSASVGDRVTITCRASESVDNYGISFMNWFQQKPGKAPKLLIYAASNQGSGVPSRFSGSGSGTDFTLTISSLQPDDFATYYCQQSKEVPWTFGQGTKVEIK
# B5: Refmab #4 (antibody, human IgG1, V domains shown)
# VH: QVQLVQSGAEVKKPGESVKVSCKASGYTFTNYGMNWVKQAPGQGLEWMGWINTYTGEPTYADKFQGRVTMTTDTSTSTAYMEIRNLGGDDTAVYYCARWSWSDGYYVYFDYWGQGTSVTVSS
# VL: DIVMTQSPDSLTVSLGERTTINCKSSQSVLDSSTNKNSLAWYQQKPGQPPKLLLSWASTRESGIPDRFSGSGSGTDFTLTIDSPQPEDSATYYCQQSAHFPITFGQGTRLEIK
# B6: Refmab #6 (antibody, V domains shown)
# VH: QVQLQQPGAEVVKPGASVKMSCKASGYTFTSYYIHWIKQTPGQGLEWVGVIYPGNDDISYNQKFQGKATLTADKSSTTAYMQLSSLTSEDSAVYYCAREVRLRYFDVWGQGTTVTVSS
# VL: EIVLTQSPGSLAVSPGERVTMSCKSSQSVFFSSSQKNYLAWYQQIPGQSPRLLIYWASTRESGVPDRFTGSGSGTDFTLTISSVQPEDLAIYYCHQYLSSRTFGQGTKLEIK
# notes: as for B1
# B7: Refmab #6 (antibody, human IgG1, V domains shown)
# VH: B6 VH
# VL: B6 VL
# How the values were obtained:
# [1] = molecular target: T1, human CD33 Y129A (human, UniProt P20138 18-364); experiment: alanine scan, flow cytometry, HEK293-T;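 note: antibody binding to each alanine-substituted CD33 mutant expressed transiently in HEK293-T, read as fluorescence minus background, mean of duplicates, relative to wild-type CD33 set as 100%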
# T1 construct: alanine scan clone, transfected HEK293-T
# Method: (§1) An alanine scan on human CD33 was performed to the determine the residues on CD33 that are involved in binding to the antibodies investigated. […] Briefly, a mutation library of CD33 was created by high-throughput, site-directed mutagenesis. Each residue was individually mutated to alanine, with alanine codons mutated to serine. The mutant library was arrayed in 384-well microplates and transiently transfected into HEK293-T. Following transfection, cells were incubated with the indicated antibodies (IgG or Fab) at concentrations pre-determined using an independent immunofluorescence titration curve on wild type CD33. […] Binding of each antibody to each mutant clone was determined in duplicates. For each point, background fluorescence was subtracted from the raw data, which were then normalized to antibody reactivity with wild type CD33.
# (§2) Critical residues for antibody binding (outlined in dark grey) were residues whose mutations led to a binding of the test Abs of less than 20%. Additional secondary residues (outlined in light grey) were identified that led to a binding of the test Abs of between 20 and 40% as compared to the wild type CD33.
# [2] = molecular target: T2, human CD33 L134A (human, UniProt P20138 18-364); experiment: alanine scan, flow cytometry, HEK293-T;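 note: antibody binding to each alanine-substituted CD33 mutant expressed transiently in HEK293-T, read as fluorescence minus background, mean of duplicates, relative to wild-type CD33 set as 100%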
# T2 construct: alanine scan clone, transfected HEK293-T
# Method: as §1, §2
# [3] = molecular target: human CD33 F279A (human, UniProt P20138 18-364); experiment: flow cytometry, HEK293-T, alanine scan;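 note: transiently transfected HEK293-T cells expressing single alanine mutants of human CD33 (alanine residues changed to serine), antibody binding fluorescence minus background, relative to wild type CD33, mean of duplicates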
# Method: as §1, §2
# [4] = molecular target: human CD33 C325A (human, UniProt P20138 18-364); experiment: flow cytometry, HEK293-T, alanine scan;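 note: transiently transfected HEK293-T cells expressing single alanine mutants of human CD33 (alanine residues changed to serine), antibody binding fluorescence minus background, relative to wild type CD33, mean of duplicates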
# Sequence of human CD33 C325A (P20138 18-364 C325A limits assumed): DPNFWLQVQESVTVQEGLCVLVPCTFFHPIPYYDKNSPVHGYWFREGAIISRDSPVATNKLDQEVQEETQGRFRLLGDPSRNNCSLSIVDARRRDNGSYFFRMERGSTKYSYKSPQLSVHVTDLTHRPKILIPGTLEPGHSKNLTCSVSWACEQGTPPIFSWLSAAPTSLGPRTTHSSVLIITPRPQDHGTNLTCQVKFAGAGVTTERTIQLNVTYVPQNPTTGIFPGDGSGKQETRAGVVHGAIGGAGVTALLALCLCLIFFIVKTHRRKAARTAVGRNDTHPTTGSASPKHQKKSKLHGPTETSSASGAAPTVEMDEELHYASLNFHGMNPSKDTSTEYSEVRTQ
# Method: as §1, §2
# [5] = molecular target: human CD33 A290S (human, UniProt P20138 18-364); experiment: flow cytometry, HEK293-T, alanine scan;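 note: transiently transfected HEK293-T cells expressing single alanine mutants of human CD33 (alanine residues changed to serine), antibody binding fluorescence minus background, relative to wild type CD33, mean of duplicates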
# Sequence of human CD33 A290S (P20138 18-364 A290S limits assumed): as the sequence (P20138 18-364 C325A limits assumed) above, with A273S, A308C counted along it
# Method: as §1, §2
# [6] = molecular target: human CD33 H300A (human, UniProt P20138 18-364); experiment: flow cytometry, HEK293-T, alanine scan;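 note: transiently transfected HEK293-T cells expressing single alanine mutants of human CD33 (alanine residues changed to serine), antibody binding fluorescence minus background, relative to wild type CD33, mean of duplicates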
# Sequence of human CD33 H300A (P20138 18-364 H300A limits assumed): as the sequence (P20138 18-364 C325A limits assumed) above, with H283A, A308C counted along it
# Method: as §1, §2
# [7] = molecular target: human CD33 F345A (human, UniProt P20138 18-364); experiment: flow cytometry, HEK293-T, alanine scan
# Sequence of human CD33 F345A (P20138 18-364 F345A limits assumed): as the sequence (P20138 18-364 C325A limits assumed) above, with A308C, F328A counted along it
# Method: as §1, §2
# [8] = molecular target: human CD33 K288A (human, UniProt P20138 18-364); experiment: flow cytometry, HEK293-T, alanine scan
# Sequence of human CD33 K288A (P20138 18-364 K288A limits assumed): as the sequence (P20138 18-364 C325A limits assumed) above, with K271A, A308C counted along it
# Method: as §1, §2
# [9] = molecular target: human CD33 D298A (human, UniProt P20138 18-364); experiment: flow cytometry, HEK293-T, alanine scan
# Sequence of human CD33 D298A (P20138 18-364 D298A limits assumed): as the sequence (P20138 18-364 C325A limits assumed) above, with D281A, A308C counted along it
# Method: as §1, §2
# [10] = molecular target: human CD33 L277A (human, UniProt P20138 18-364); experiment: flow cytometry, HEK293-T, alanine scan
# Sequence of human CD33 L277A (P20138 18-364 L277A limits assumed): as the sequence (P20138 18-364 C325A limits assumed) above, with L260A, A308C counted along it
# Method: as §1, §2
# [11] = molecular target: human CD33 Y340A (human, UniProt P20138 18-364); experiment: flow cytometry, HEK293-T, alanine scan
# Sequence of human CD33 Y340A (P20138 18-364 Y340A limits assumed): as the sequence (P20138 18-364 C325A limits assumed) above, with A308C, Y323A counted along it
# Method: as §1, §2
# [12] = molecular target: human CD33 C276A (human, UniProt P20138 18-364); experiment: flow cytometry, HEK293-T, alanine scan
# Method: as §1, §2
# [13] = molecular target: human CD33 S314A (human, UniProt P20138 18-364); experiment: flow cytometry, HEK293-T, alanine scan
# Sequence of human CD33 S314A (P20138 18-364 S314A limits assumed): as the sequence (P20138 18-364 C325A limits assumed) above, with S297A, A308C counted along it
# Method: as §1, §2
# [14] = molecular target: human CD33 T292A (human, UniProt P20138 18-364); experiment: flow cytometry, HEK293-T, alanine scan
# Method: as §1, §2
# [15] = molecular target: human CD33 T303A (human, UniProt P20138 18-364); experiment: flow cytometry, HEK293-T, alanine scan
# Sequence of human CD33 T303A (P20138 18-364 T303A limits assumed): as the sequence (P20138 18-364 C325A limits assumed) above, with T286A, A308C counted along it
# Method: as §1, §2
# [16] = molecular target: human CD33 P301A (human, UniProt P20138 18-364); experiment: flow cytometry, HEK293-T, alanine scan
# Sequence of human CD33 P301A (P20138 18-364 P301A limits assumed): as the sequence (P20138 18-364 C325A limits assumed) above, with P284A, A308C counted along it
# Method: as §1, §2
# [17] = molecular target: human CD33 S305A (human, UniProt P20138 18-364); experiment: flow cytometry, HEK293-T, alanine scan
# Sequence of human CD33 S305A (P20138 18-364 S305A limits assumed): as the sequence (P20138 18-364 C325A limits assumed) above, with S288A, A308C counted along it
# Method: as §1, §2
# [18] = molecular target: human CD33 S326A (human, UniProt P20138 18-364); experiment: flow cytometry, HEK293-T, alanine scan
# Sequence of human CD33 S326A (P20138 18-364 S326A limits assumed): as the sequence (P20138 18-364 C325A limits assumed) above, with A308C, S309A counted along it
# Method: as §1, §2
# [19] = molecular target: human CD33 R291A (human, UniProt P20138 18-364); experiment: flow cytometry, HEK293-T, alanine scan
# Sequence of human CD33 R291A (P20138 18-364 R291A limits assumed): as the sequence (P20138 18-364 C325A limits assumed) above, with R274A, A308C counted along it
# Method: as §1, §2
# [20] = molecular target: human CD33 K52I (human, UniProt P20138 18-364); experiment: flow cytometry, transfected cells
# [21] = molecular target: human CD33 Y49I (human, UniProt P20138 18-364); experiment: flow cytometry, transfected cells
# [22] = molecular target: human CD33 F44P (human, UniProt P20138 18-364); experiment: flow cytometry, transfected cells
# [23] = molecular target: human CD33 H45Y (human, UniProt P20138 18-364); experiment: flow cytometry, transfected cells
# [24] = molecular target: human CD33 P46L (human, UniProt P20138 18-364); experiment: flow cytometry, transfected cells
# [25] = molecular target: human CD33 Q24T (human, UniProt P20138 18-364); experiment: flow cytometry, transfected cells
# [26] = molecular target: human CD33 P46I (human, UniProt P20138 18-364); experiment: flow cytometry, transfected cells
# [27] = molecular target: human CD33 D18R (human, UniProt P20138 19-364); experiment: flow cytometry, transfected cells
# [28] = molecular target: human CD33 Y49T (human, UniProt P20138 18-364); experiment: flow cytometry, transfected cells
# [29] = molecular target: human CD33 P48K (human, UniProt P20138 18-364); experiment: flow cytometry, transfected cells
# [30] = molecular target: human CD33 P48M (human, UniProt P20138 18-364); experiment: flow cytometry, transfected cells
# [31] = molecular target: human CD33 Y50R (human, UniProt P20138 18-364); experiment: flow cytometry, transfected cells
# [32] = molecular target: human CD33 P48L (human, UniProt P20138 18-364); experiment: flow cytometry, transfected cells
# [33] = molecular target: human CD33 P132Y (human, UniProt P20138 18-364); experiment: flow cytometry, transfected cells
# [34] = molecular target: human CD33 P132N (human, UniProt P20138 18-364); experiment: flow cytometry, transfected cells
# [35] = molecular target: human CD33 P132F (human, UniProt P20138 18-364); experiment: flow cytometry, transfected cells
# [36] = molecular target: human CD33 S131M (human, UniProt P20138 18-364); experiment: flow cytometry, transfected cells
# [37] = molecular target: human CD33 S131F (human, UniProt P20138 18-364); experiment: flow cytometry, transfected cells
# [38] = molecular target: human CD33 P132K (human, UniProt P20138 18-364); experiment: flow cytometry, transfected cells
binder,measurement,setting,value
B1,Mean % WT Binding,[1],196 % WT binding
same,Mean % WT Binding,[2],95.9 % WT binding
B2,Mean % WT Binding,[3],100 % WT binding
same,Mean % WT Binding,[4],107 % WT binding
same,Mean % WT Binding,[5],118 % WT binding
same,Mean % WT Binding,[6],92.8 % WT binding
same,Mean % WT Binding,[7],86.4 % WT binding
same,Mean % WT Binding,[8],97.9 % WT binding
same,Mean % WT Binding,[9],84.5 % WT binding
same,Mean % WT Binding,[10],89 % WT binding
same,Mean % WT Binding,[11],88.6 % WT binding
same,Mean % WT Binding,[12],95.4 % WT binding
same,Mean % WT Binding,[13],112 % WT binding
same,Mean % WT Binding,[14],85.1 % WT binding
same,Mean % WT Binding,[15],82.4 % WT binding
same,Mean % WT Binding,[16],90.1 % WT binding
same,Mean % WT Binding,[17],103 % WT binding
same,Mean % WT Binding,[18],107 % WT binding
same,Mean % WT Binding,[19],103 % WT binding
B3,binding result,[20],no binding (tested: below 20%)
same,binding result,[21],no binding (tested: below 20%)
B4,binding result,[22],no binding (tested: below 20%)
same,binding result,[23],no binding (tested: below 20%)
same,binding result,[24],no binding (tested: below 20%)
same,binding result,[25],no binding (tested: below 20%)
same,binding result,[26],no binding (tested: below 20%)
same,binding result,[27],no binding (tested: below 20%)
B5,binding result,[28],no binding (tested: below 20%)
same,binding result,[29],no binding (tested: below 20%)
same,binding result,[30],no binding (tested: below 20%)
same,binding result,[31],no binding (tested: below 20%)
same,binding result,[32],no binding (tested: below 20%)
B6,Mean % WT Binding,[3],102 % WT binding
same,Mean % WT Binding,[4],111 % WT binding
same,Mean % WT Binding,[5],108 % WT binding
same,Mean % WT Binding,[6],101 % WT binding
same,Mean % WT Binding,[7],98.4 % WT binding
same,Mean % WT Binding,[8],100 % WT binding
same,Mean % WT Binding,[9],106 % WT binding
same,Mean % WT Binding,[10],104 % WT binding
same,Mean % WT Binding,[11],101 % WT binding
same,Mean % WT Binding,[12],100 % WT binding
same,Mean % WT Binding,[13],96.3 % WT binding
same,Mean % WT Binding,[14],113 % WT binding
same,Mean % WT Binding,[15],95.5 % WT binding
same,Mean % WT Binding,[16],105 % WT binding
same,Mean % WT Binding,[17],86.8 % WT binding
same,Mean % WT Binding,[18],88.8 % WT binding
same,Mean % WT Binding,[19],104 % WT binding
B7,binding result,[33],no binding (tested: below 20%)
same,binding result,[34],no binding (tested: below 20%)
same,binding result,[35],no binding (tested: below 20%)
same,binding result,[36],no binding (tested: below 20%)
same,binding result,[37],no binding (tested: below 20%)
same,binding result,[38],no binding (tested: below 20%)
